Target: dog street rabies virus DRV-4
Assay: cell-based or functional assay

B1: plant-derived human rabies monoclonal antibody MAb^P (rabies human MAb S057 expressed in transgenic (antibody, V domains shown)
VH: QVQLVQSGAEVKKPGSSVKVSCKASGGTFNRYTVNWVRQAPGQGLEWMGGIIPIFGTANYAQRFQGRLTITADESTSTAYMELSSLRSDDTAVYFCARENLDNSGTYYYFSGWFDPWGQGTLVTVSS
VL: QSALTQPRSVSGSPGQSVTISCTGTSSDIGGYNFVSWYQQHPGKAPKLMIYDATKRPSGVPDRFSGSKSGNTASLTISGLQAEDEADYYCCSYAGDYTPGVVFGGGTKLTVLG
Virus neutralizing antibody (VNA) titer, RFFIT: 81 IU/ml

Source: patent publication US20060134099A1
